Molecular target: Spef1 K204Q/K206Q/R207Q/R215Q/R218Q mutant (full-length) (mouse) (UniProt Q99JL1)
Test: SEC-MALS

Spef1 K204Q/K206Q/R207Q/R215Q/R218Q mutant (full-length) (from UniProt Q99JL1 1-234) (natural protein)
stoichiometry N: 2

Source: publication doi:10.1101/2025.07.31.667833
